39 sequences from the supplement of paper PMC7877785 can be followed below.

± gives the uncertainty stated by the source.

The nature of this data set: self-splicing fitness, log relative to wild type (ln ratio); higher = more splicing; Tetrahymena group I intron in knt gene, E. coli kanamycin selection, DiMSum; sequences stand for … in CUCUCU…GGAGGGAAAAGUUAUCAGGCAUGCACCUGGUAGCUAGUCUUUAAACCAAUAGAUUGCAUCGGUUUAAAAGGCAAGACCGUCAAAUUGCGGGAAAGGGGUCAACAGCCGUUCAGUACCAAGUCUCAGGGGAAACUUUGAGAUGGCCUUGCAAAGGGUAUGGUAAUAAGCUGACGGACAUGGUCCUAACCACGCAGCCAAGUCCUAAGUCAACAGAUCUUCUGUUGAUAUGGAUGCAGUUCACAGACUAAAUGUCGGUCGGGGAAGAUGUAUUCUUCUCAUAAGAUAUAGUCGGACCUCUCCUUAAUGGGAGCUAGCGGAUGAAGUGAUGCAACACUGGAGCCGCUGGGAACUAAUUUGUAUGCGAAAGUAUAUUGAUUAGUUUUGGAGUACUCGUGGUCG
In short, it runs like this: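 Colonies from six replicate transformations of E. coli BL21(DE3) were pooled and amplicon-sequenced on an Illumina HiSeq 2500. The library placed an intron with all eight P1ex-region nucleotides randomised inside the knt kanamycin-resistance gene on pET-22b(+), and cells grew overnight at 37°C or 30°C on LB agar with or without 25 μg/mL kanamycin (plus 100 μg/mL carbenicillin, 50 μM IPTG, 0.2% rhamnose). Fitness is the DiMSum error-weighted combination of wild-type-normalised replicate fold changes, kanamycin versus none.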

As to ACGCAGCAAUAUUACGCGUA, the “self-splicing fitness (ln)” value is, setting by setting: (30 °C) -3.63 ± 0.23; (37 °C) -2.1 ± 0.15.

Take UCCGAGCAAUAUUACGUGCU: the “self-splicing fitness (ln)” value is -3.32 ± 0.26 (30 °C) and -2.61 ± 0.29 (37 °C).

In the case of GUACAGCAAUAUUACGGUUC, the “self-splicing fitness (ln)” value is -1.29 ± 0.074 (30 °C) and -0.703 ± 0.08 (37 °C).

Regarding UUACAGCAAUAUUACGCGCG, the “self-splicing fitness (ln)” value runs as follows: (30 °C) -0.121 ± 0.099; (37 °C) 0.0717 ± 0.1.

With GUCAAGCAAUAUUACGGCCC, the “self-splicing fitness (ln)” value (30 °C) was -0.498 ± 0.33.

For CGACAGCAAUAUUACGCACC, the “self-splicing fitness (ln)” value (30 °C) is -0.97 ± 0.21 and the “self-splicing fitness (ln)” value (37 °C) is -1.79 ± 0.21.

Take AGCUAGCAAUAUUACGGCAU: the “self-splicing fitness (ln)” value (30 °C) was -0.602 ± 0.11 and the “self-splicing fitness (ln)” value (37 °C) is -0.476 ± 0.14.

For the sequence GUUAAGCAAUAUUACGGCUU, the “self-splicing fitness (ln)” value was -1.22 ± 0.11 (30 °C) and -0.546 ± 0.14 (37 °C).

For CCGAAGCAAUAUUACGAGUC, the “self-splicing fitness (ln)” value by setting is: (30 °C) -3.86 ± 0.21; (37 °C) -2.53 ± 0.19.

GGGCAGCAAUAUUACGGGCC: the “self-splicing fitness (ln)” value runs as follows: (30 °C) -2.96 ± 0.2; (37 °C) -2.66 ± 0.31.

On to AAUAAGCAAUAUUACGUGUU, for which the “self-splicing fitness (ln)” value runs as follows: (30 °C) -3.01 ± 0.097; (37 °C) -2.58 ± 0.13.

Turning to UCCGAGCAAUAUUACGGUCU, the “self-splicing fitness (ln)” value (30 °C) is -2.4 ± 0.15 and the “self-splicing fitness (ln)” value (37 °C) is -1.58 ± 0.13.

With CCCAAGCAAUAUUACGCCGG, the “self-splicing fitness (ln)” value (30 °C) was -3.22 ± 0.29 and the “self-splicing fitness (ln)” value (37 °C) was -2.35 ± 0.32.

Consider GGCAAGCAAUAUUACGUAUA, for which the “self-splicing fitness (ln)” value is -1.02 ± 0.066 (30 °C) and -0.515 ± 0.07 (37 °C).

Consider UGCCAGCAAUAUUACGGCGA, for which the “self-splicing fitness (ln)” value was -0.122 ± 0.072 (30 °C) and 0.211 ± 0.093 (37 °C).

In the case of UGUUAGCAAUAUUACGUUAC, the “self-splicing fitness (ln)” value (30 °C) is -1.97 ± 0.43.

In the case of UGUCAGCAAUAUUACGCCAA, the “self-splicing fitness (ln)” value was -0.858 ± 0.13 (30 °C) and -0.585 ± 0.13 (37 °C).

Consider CAGAAGCAAUAUUACGGAGG, for which the “self-splicing fitness (ln)” value is -1.91 ± 0.099 (30 °C) and -1.2 ± 0.1 (37 °C).

AUACAGCAAUAUUACGGAUU: the “self-splicing fitness (ln)” value is, setting by setting: (30 °C) -1.82 ± 0.079; (37 °C) -1.24 ± 0.088.

On to CCGGAGCAAUAUUACGAUCG, for which the “self-splicing fitness (ln)” value was -0.502 ± 0.12 (30 °C) and 0.299 ± 0.16 (37 °C).

As for CGAUAGCAAUAUUACGCGCA, the “self-splicing fitness (ln)” value runs as follows: (30 °C) -0.97 ± 0.12; (37 °C) -0.529 ± 0.12.

For the sequence AACUAGCAAUAUUACGCGAC, the “self-splicing fitness (ln)” value (30 °C) was -2.49 ± 0.27.

As for CCGGAGCAAUAUUACGGAUG, the “self-splicing fitness (ln)” value runs as follows: (30 °C) -2.78 ± 0.22; (37 °C) -1.92 ± 0.23.

With AAGAAGCAAUAUUACGCAAG, the “self-splicing fitness (ln)” value was -2.01 ± 0.13 (30 °C) and -1.15 ± 0.13 (37 °C).

AUCCAGCAAUAUUACGGCAG: the “self-splicing fitness (ln)” value (30 °C) is -1.78 ± 0.085 and the “self-splicing fitness (ln)” value (37 °C) is -0.158 ± 0.097.

Consider GCCCAGCAAUAUUACGUCUA, for which the “self-splicing fitness (ln)” value reads like this: (30 °C) -1.37 ± 0.084; (37 °C) -1.15 ± 0.093.

For the sequence AUUCAGCAAUAUUACGUAAC, the “self-splicing fitness (ln)” value was -0.841 ± 0.17 (30 °C) and 1.08 ± 0.19 (37 °C).

With UUCAAGCAAUAUUACGACCA, the “self-splicing fitness (ln)” value is -1.48 ± 0.31 (30 °C) and -0.352 ± 0.21 (37 °C).

Regarding CGCGAGCAAUAUUACGCAAC, under “30 °C”, the “self-splicing fitness (ln)” value was -2.25 ± 0.31.

Take AUACAGCAAUAUUACGCUUA: the “self-splicing fitness (ln)” value reads like this: (30 °C) -1.67 ± 0.12; (37 °C) -0.741 ± 0.099.

AAAGAGCAAUAUUACGGCAU: the “self-splicing fitness (ln)” value reads like this: (30 °C) -1.83 ± 0.087; (37 °C) -0.726 ± 0.097.

As to AAACAGCAAUAUUACGAGAA, the “self-splicing fitness (ln)” value (37 °C) was -1.95 ± 0.17.

As for UAACAGCAAUAUUACGCACG, the “self-splicing fitness (ln)” value (30 °C) is -1.17 ± 0.058 and the “self-splicing fitness (ln)” value (37 °C) was -0.421 ± 0.072.

For AACCAGCAAUAUUACGCGAA, the “self-splicing fitness (ln)” value (30 °C) is -1.11 ± 0.06 and the “self-splicing fitness (ln)” value (37 °C) was -0.99 ± 0.076.

Turning to GUGGAGCAAUAUUACGUGGA, the “self-splicing fitness (ln)” value is -2.92 ± 0.28 (30 °C) and -3.07 ± 0.36 (37 °C).

Consider CGGUAGCAAUAUUACGCCUG, for which the “self-splicing fitness (ln)” value (30 °C) is -1.32 ± 0.13 and the “self-splicing fitness (ln)” value (37 °C) was -0.225 ± 0.11.

Take UCGCAGCAAUAUUACGCCGU: the “self-splicing fitness (ln)” value was -3.48 ± 0.26 (30 °C) and -2.99 ± 0.4 (37 °C).

CUGGAGCAAUAUUACGCAAU: the “self-splicing fitness (ln)” value is -3.93 ± 0.33 (30 °C) and -2.08 ± 0.29 (37 °C).

Take CAACAGCAAUAUUACGGCAC: the “self-splicing fitness (ln)” value by setting is: (30 °C) -2.31 ± 0.13; (37 °C) -1.61 ± 0.13.
